This note sets out measurements from patent publication US7611713.

The experiment has as its target HLA-B*0701 (as printed in the head of Table XXII) (human). The experiment is described as follows: competitive inhibition of radiolabeled standard peptide binding to purified HLA.

The IC50 is the concentration that inhibits the measured activity by half. As for “HBV ENV 313 analog with F at position 1 (peptide; other documents disagree on this pair)”, the IC50 came to 24 nM.
